From publication PMC7334434

Target: 14-3-3β (UniProt P31946)
Experiment: co-IP
Conditions: reference: wild type

Substance	binding against the reference (sites S138)	binding against the reference (sites S142)
TFEB (from UniProt P19484) S138A	weaker	–
TFEB (from UniProt P19484) S142A	–	weaker
